Results from the Immune Epitope Database (IEDB).
pIC50, pKd: −log10 of the molar value.

Assays:
[1] = target: HLA-B*44:03; assay: IEDB peptide-MHC binding, purified MHC/competitive/radioactivity; filed as Kd, often an IC50 or EC50 that approximates it; ≥ and ≤ were set here for values at or beyond the usual limits of such assays
[2] = target: HLA-B*44:02; assay: as above
[3] = target: HLA-B*40:02; assay: as above
[4] = target: HLA-B*18:01; assay: as above
[5] = target: HLA-B*40:01; assay: as above
[6] = target: HLA-B*45:01; assay: as above
[7] = target: HLA-A*02:03; assay: as above
[8] = target: HLA-A*02:02; assay: as above
[9] = target: HLA-A*02:06; assay: as above
[10] = target: HLA-A*68:02; assay: as above
[11] = target: HLA-A*02:01; assay: as above
[12] = target: HLA-A*33:01; assay: as above; settings: source organism: Vaccinia virus WR
[13] = target: HLA-A*03:01; assay: as above; settings: source organism: Vaccinia virus WR
[14] = target: HLA-A*11:01; assay: as above; settings: source organism: Vaccinia virus WR
[15] = target: HLA-A*68:01; assay: as above; settings: source organism: Vaccinia virus WR
[16] = target: HLA-A*31:01; assay: as above; settings: source organism: Vaccinia virus WR
[17] = target: HLA-A*24:02; assay: IEDB peptide-MHC binding, purified MHC/competitive/fluorescence; ≥ and ≤ were set here for values at or beyond the usual limits of such assays
[18] = target: HLA-B*54:01; assay: IEDB peptide-MHC binding, purified MHC/competitive/radioactivity; filed as Kd, often an IC50 or EC50 that approximates it; ≥ and ≤ were set here for values at or beyond the usual limits of such assays; settings: source organism: Vaccinia virus WR
[19] = target: HLA-B*07:02; assay: as above; settings: source organism: Vaccinia virus WR
[20] = target: HLA-B*51:01; assay: as above; settings: source organism: Vaccinia virus WR
[21] = target: HLA-B*53:01; assay: as above; settings: source organism: Vaccinia virus WR
[22] = target: HLA-B*35:01; assay: as above; settings: source organism: Vaccinia virus WR
[23] = target: HLA-A*02:01; assay: IEDB peptide-MHC binding, purified MHC/competitive/fluorescence; ≥ and ≤ were set here for values at or beyond the usual limits of such assays; settings: source organism: Sudan ebolavirus
[24] = target: HLA-A*69:01; assay: IEDB peptide-MHC binding, purified MHC/direct/fluorescence; filed as Kd, often an IC50 or EC50 that approximates it; ≥ and ≤ were set here for values at or beyond the usual limits of such assays; settings: source organism: Mammarenavirus lassaense
[25] = target: HLA-A*02:01; assay: as above; settings: source organism: Mammarenavirus lassaense
[26] = source organism: SARS coronavirus Tor2
[27] = source organism: Hepatitis C virus (isolate BK)
[28] = source organism: Dengue virus 4 Philippines/H241/1956
[29] = source organism: Lassa virus Josiah
[30] = source organism: Vaccinia virus WR
[31] = source organism: Mammarenavirus brazilense
[32] = source organism: Mammarenavirus whitewaterense
[33] = source organism: Trypanosoma cruzi
[34] = source organism: Lymphocytic choriomeningitis virus (strain WE)

In the case of YEAMYTPHT, the pKd [1, 26] was 4.89, the pKd [2, 26] was ≤ 4.66 and the pKd [3, 26] was 6.62. It also gave a pKd [4, 26] of 5.55, a pKd [5, 26] of 4.84 and a pKd [6, 26] of 6.83.

CVNGVCWTV was tested, and the pKd [7, 27] was 5.68, the pKd [8, 27] was 5.98 and the pKd [9, 27] was 5.57. The pKd [10, 27] was 6.02 and the pKd [11, 27] was 5.99.

NIHTAITQV showed a pKd [7, 28] of 7.58 and a pKd [10, 28] of 6.82.

With REPTDLKQF the pKd [1, 29] was 5.07, the pKd [2, 29] was 5.82 and the pKd [3, 29] was 6.00. For the same sequence, the pKd [4, 29] was ≤ 4.26, the pKd [5, 29] was 5.54 and the pKd [6, 29] was ≤ 4.11.

Work on SEFDRDAAM yielded a pKd [1, 26] of 6.27, a pKd [2, 26] of 6.13 and a pKd [3, 26] of 6.00. It also gave a pKd [4, 26] of 5.60, a pKd [5, 26] of 6.68 and a pKd [6, 26] of 4.74.

With LPRPDTRHL the pKd [12] was ≤ 4.11, the pKd [13] was ≤ 4.24 and the pKd [14] was ≤ 4.11. The pKd [7, 30] was ≤ 4.11, the pKd [8, 30] was ≤ 4.11 and the pKd [9, 30] was 4.74. The pKd [15] was ≤ 4.11, the pKd [16] was ≤ 4.11 and the pKd [10, 30] was ≤ 4.11. The pKd [11, 30] was ≤ 4.11.

With VYKLDISEA the pIC50 ([17]; source organism: Zaire ebolavirus) was 4.36.

NTYLFNILY was tested, and the pKd [12] was 5.83, the pKd [13] was 6.20 and the pKd [18] was 5.84. The pKd [14] was 6.58, the pKd [7, 30] was 5.81 and the pKd [8, 30] was 5.80. For the same sequence, the pKd [9, 30] was 5.21, the pKd [15] was 6.14 and the pKd [16] was 6.16. The pKd [19] was ≤ 4.53, the pKd [10, 30] was 5.13 and the pKd [20] was 4.75. For the same sequence, the pKd [21] was 5.24, the pKd [22] was 4.98 and the pKd [11, 30] was 6.02.

With EGIYTEGLM the pIC50 ([17]; source organism: Sudan ebolavirus) was 4.82 and the pIC50 [23] was 4.48.

EEAARCMRSL was tested, and the pKd [1, 26] was 6.39, the pKd [2, 26] was 6.79 and the pKd [3, 26] was 6.74. It also gave a pKd [4, 26] of 5.16, a pKd [5, 26] of 6.10 and a pKd [6, 26] of 7.07.

In the case of GVSWMIRILI, the pKd ([10]; source organism: Dengue virus 4 Dominica/814669/1981) was 6.71.

FVFSTSFYL showed a pKd [7, 29] of 7.29, a pKd [8, 29] of 8.82 and a pKd [9, 29] of 7.86. For the same sequence, the pKd [10, 29] was 9.29, the pKd [24] was 8.92 and the pKd [25] was ≥ 9.00.

For YEQQTVNST, the pKd [1, 31] was ≤ 4.11, the pKd [2, 31] was ≤ 4.47 and the pKd [3, 31] was 7.11. The pKd [4, 31] was 5.95, the pKd [5, 31] was ≤ 4.27 and the pKd [6, 31] was 5.92.

In the case of QVMLLVLCV, the pKd ([10]; source organism: Dengue virus 2 Peru/IQT2913/1996) was 6.84.

With SDHLISEIL the pKd [1, 32] was ≤ 4.11, the pKd [2, 32] was 5.04 and the pKd [3, 32] was 7.08. The pKd [4, 32] was ≤ 4.11, the pKd [5, 32] was 5.07 and the pKd [6, 32] was 5.78.

IDYRHYSASF was tested, and the pKd [1, 26] was ≤ 4.44, the pKd [2, 26] was 5.23 and the pKd [3, 26] was 5.57. For the same sequence, the pKd [4, 26] was ≤ 4.50, the pKd [5, 26] was ≤ 4.35 and the pKd [6, 26] was 6.01.

For DKLVDPINY, the pKd ([1]; source organism: Variola virus) was ≤ 4.11, the pKd ([2]; source organism: Variola virus) was ≤ 4.11 and the pKd ([3]; source organism: Variola virus) was ≤ 4.11. For the same sequence, the pKd ([4]; source organism: Variola virus) was ≤ 4.11, the pKd ([5]; source organism: Variola virus) was 4.81 and the pKd ([6]; source organism: Variola virus) was ≤ 4.11.

ELLRPTTLV was tested, and the pKd [7, 33] was 5.86, the pKd [8, 33] was 5.39 and the pKd [9, 33] was 5.68. It also gave a pKd [10, 33] of 7.06.

For KEPVESCPLM, the pKd [1, 34] was ≤ 4.39, the pKd [2, 34] was 4.84 and the pKd [3, 34] was 6.68. The pKd [4, 34] was ≤ 4.46, the pKd [5, 34] was 4.93 and the pKd [6, 34] was ≤ 4.15.
